Assay results reported in patent publication US20200116741A1 (University of California, published 2020).

Tests used:
[1] = biological target: T1, peptide ELPRGPGESRAGPAARPP (human); test: peptide epitope scanning
T1 peptide: ELPRGPGESRAGPAARPP

rhERFE2 = biological target: T2, rhERFE2 (human, UniProt Q4G0M1 29-354); test: hybridoma supernatant screening; checkerboard sandwich testing
T2 construct: also called Recombinant hERFE2; recombinant human erythroferrone 2
T2 sequence: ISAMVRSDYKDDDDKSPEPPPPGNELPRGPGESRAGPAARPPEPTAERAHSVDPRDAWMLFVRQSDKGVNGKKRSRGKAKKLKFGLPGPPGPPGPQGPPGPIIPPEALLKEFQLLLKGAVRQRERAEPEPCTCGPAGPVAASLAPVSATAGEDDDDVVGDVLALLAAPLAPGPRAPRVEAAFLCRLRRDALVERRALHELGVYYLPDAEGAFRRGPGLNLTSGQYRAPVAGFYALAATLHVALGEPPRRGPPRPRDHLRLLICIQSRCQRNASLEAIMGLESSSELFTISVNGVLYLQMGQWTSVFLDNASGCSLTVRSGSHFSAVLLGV
Description: Rabbit hybridomas were generated (custom order fulfilled by Abcam, Burlingame, Calif.) from rabbits immunized by rhERFE1 and boosted by rhERFE2. Hybridoma supernatants were selected for reactivity against rhERFE2. After biotinylation of Mabs (EZ-Link sulfo-NHS-LC-LC-Biotin kit, Thermo Fisher Scientific), optimal pair of unbiotinylated capture Mab and biotinylated detection Mab was chosen by checkerboard testing with rhERFE1 and rhERFE2. The cDNAs encoding the final Mab pair (#9 and #42) were cloned from the hybridomas and used to produce the Mabs recombinantly.

rhERFE1 [2] = biological target: T3, rhERFE1 (human, UniProt Q4G0M1 29-354); test: checkerboard sandwich ELISA, capture antibody
T3 construct: The FLAG tag was mostly lost during cell culture; also called recombinant hERFE; recombinant human erythroferrone 1
T3 sequence: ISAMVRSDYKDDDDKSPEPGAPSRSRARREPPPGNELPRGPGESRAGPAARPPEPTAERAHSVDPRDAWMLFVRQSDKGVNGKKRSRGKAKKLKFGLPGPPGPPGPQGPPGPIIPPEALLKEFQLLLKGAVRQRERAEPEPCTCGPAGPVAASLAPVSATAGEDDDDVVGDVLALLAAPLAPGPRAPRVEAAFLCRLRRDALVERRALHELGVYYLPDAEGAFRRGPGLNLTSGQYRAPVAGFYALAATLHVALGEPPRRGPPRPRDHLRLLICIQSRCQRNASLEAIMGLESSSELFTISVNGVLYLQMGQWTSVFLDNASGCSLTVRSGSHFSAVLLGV

human erythroferrone [3] = biological target: T4, human erythroferrone (human, UniProt Q4G0M1 29-354); test: sandwich ELISA on human serum, Mab#9 as capture antibody
T4 construct: Native hormone in human serum, detected by the Mab#9 / Mab#42 sandwich ELISA; also called hERFE; serum hERFE
T4 sequence (looked up): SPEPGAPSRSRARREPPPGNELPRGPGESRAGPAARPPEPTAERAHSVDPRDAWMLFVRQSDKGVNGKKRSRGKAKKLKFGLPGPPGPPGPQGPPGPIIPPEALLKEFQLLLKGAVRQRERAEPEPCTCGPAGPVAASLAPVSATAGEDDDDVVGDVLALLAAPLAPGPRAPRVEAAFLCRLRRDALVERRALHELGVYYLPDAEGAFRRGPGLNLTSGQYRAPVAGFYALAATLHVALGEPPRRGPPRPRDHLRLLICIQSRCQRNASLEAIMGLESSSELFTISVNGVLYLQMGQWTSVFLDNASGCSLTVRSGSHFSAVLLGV
Experimental: (§1) 96-well high binding plates (Costar #3590) were coated with Mab#9 diluted to 1 μg/ml in sodium carbonate buffer (50 mM, pH 9.6), overnight at 4° C. Plates were washed 3-times with TB S-T (TBS +0.05% Tween 20) then blocked for 1 hour at room temperature with 200 µl/well Blocking Buffer (BB: PBS,0.2% Na casein, 0.05% Tween 20, 0.1M NaCl). Recombinant hERFE2 standard was first diluted to 1 μg/ml and then serially diluted in BB to 10, 5, 2.5, 1.25, and 0.625 ng/ml. After a 1 hour incubation at 25° C. in a 300 rpm shaker, the plate was washed 4-times with TBS-T, 10 seconds, 25° C., and 300 rpm per wash and incubated 1 hour at 25° C., 300 rpm in shaker with 100 μl/well biotinylated Mab#42 (1 μg/ml in BB). After incubation for 1 hour at 25° C., 300 rpm in shaker, the plate was washed 4-times as before, incubated for 45 minutes with Neutravidin-HRP conjugate (ThermoScientific #31030) 1/5000 (100 μl/well) washed again 3-times as before and developed with 100 μl TMB Substrate System for ELISA (ThermoScientific #34028) at room temperature in the dark for 10 minutes. The reaction was stopped by adding 50 μl of 2N sulfuric acid and the plates were read on a Spectramax 250 (Molecular Devices) at 450 nm.

human erythroferrone [4] = biological target: T4, human erythroferrone; test: sandwich ELISA on human serum, biotinylated Mab#42 as detection antibody
Experimental: as §1

rhERFE1 [5] = biological target: T3, rhERFE1; test: checkerboard sandwich ELISA, biotinylated detection antibody

Measured: binding result

B1: Mab#9 (antibody, V domains shown)
VH: QSVEESGGRLVTPGTPLTLTCTVSGIDLNDNAMRWVRQAPGKGLEWIGVIYIDTSTYYASWAKGRFTISKTSSTTVDLKITSPTTEDTATYFCVREDGYRLGDVWGPGTLVTVSS
VL: ALVMTQTPSSVSAGVGGTVTINCQASQSLYNNNYLSWFQQKPGQPPKLLIYWASTLASGVPSRFSGSGSGTQFTLTISGVACDDAATYYCAGYKSSSNDDFAFGGGTEVVVKG
notes: Rabbit monoclonal from a hybridoma, later made recombinantly; Used unbiotinylated as the capture antibody in the ELISA; also called rabbit monoclonal antibody #9; capture Mab
binds: [1] | rhERFE2 | rhERFE1 [2] | human erythroferrone [3]

B2: Mab#42 (antibody, V domains shown)
VH: QSLEESGGRLVTPGGSLTLTCTVSGIDLSSYEMGWVRQAPGKGLEWIGVIGTDGTAVYATWVKGRFTISKTSTTVDLKMTSLTTEDTATYFCARDSSGNSNYRAFDPWGPGTLVTVSS
VL: AYDMTQTPASVEVAVGGTVTIKCQASQSIYSYLSWYQQKPGQPPKLLIYRASTLASGVPSRFKGSGSGTQFTLTISDLECADAATYYCQQGFVISNVLNSFGGGTEVVVKG
notes: Rabbit monoclonal from a hybridoma, later made recombinantly; also called rabbit monoclonal antibody #42; biotinylated detection Mab
binds: rhERFE2 | human erythroferrone [4] | rhERFE1 [5]
